PMC6237754, “A monovalent ion in the DNA binding interface of the eukaryotic junction-resolving enzyme GEN1”

Molecular target: T1, CtGEN1 (Chaetomium thermophilum, UniProt G0RYN2 1-487)
T1 sequence: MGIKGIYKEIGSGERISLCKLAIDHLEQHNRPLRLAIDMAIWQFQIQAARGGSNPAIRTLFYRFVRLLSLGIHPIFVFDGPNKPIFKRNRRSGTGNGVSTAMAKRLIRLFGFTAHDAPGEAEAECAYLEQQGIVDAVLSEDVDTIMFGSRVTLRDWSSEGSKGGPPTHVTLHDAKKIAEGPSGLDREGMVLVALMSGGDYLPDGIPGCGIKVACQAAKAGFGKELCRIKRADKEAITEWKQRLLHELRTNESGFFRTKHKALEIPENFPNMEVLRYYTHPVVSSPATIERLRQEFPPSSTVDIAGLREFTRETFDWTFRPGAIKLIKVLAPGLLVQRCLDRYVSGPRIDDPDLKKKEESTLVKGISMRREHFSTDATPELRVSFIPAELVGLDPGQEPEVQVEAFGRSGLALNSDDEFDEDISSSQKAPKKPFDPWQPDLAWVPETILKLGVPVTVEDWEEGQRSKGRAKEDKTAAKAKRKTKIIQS
Test: EMSA; 100 mM KCl; EMSA: equal volumes of DNA in 10 mM Tris pH 7.5, 0.1% BSA, 100 mM KCl or NaCl and CtGEN1 in 10 mM Tris pH 7.5, 100 mM NDSB-195, 0.1% BSA, 1 mM EDTA; 20 min, 20
Conditions: protein: recombinant; tags: C-terminal His6; chain copies: 2; label: 5'-32P; four-way junction; strands b/h/r/x, 50 nt each

B1: four-way junction 3 (4H) (structured_DNA)
DNA 1: CCTCGAGGGATCCGTCCTAGCAAGGGGCTGCTACCGGAAGCTTACAGATG
DNA 2: CATCTGTAAGCTTCCGGTAGCAGCCTGAGCGGTGGTTGAATTCACAGATG
DNA 3: CATCTGTGAATTCAACCACCGCTCAACTCAACTGCAGTCTAGAACACATG
DNA 4: CATGTGTTCTAGACTGCAGTTGAGTCCTTGCTAGGACGGATCCCTCGAGG
binding signal: ~2 fold higher affinity than in Na+
